PMC2198845 (The Journal of Cell Biology, 2001)

Biological target: the molecule itself
Assay: cross-linking

B1: endophilin NH2-terminal 125 amino acid fragment (domain or fragment, rat, UniProt O35179 1-125, looked up)
chain: MSVAGLKKQFHKATQKVSEKVGGAEGTKLDDDFKEMERKVDVTSRAVMEIMTKTIEYLQPNPASRAKLSMINTMSKIRGQEKGPGYPQAEALLAEAMLKFGRELGDDCNFGPALGEVGEAMRELS
Question: How did the “stoichiometry N” value turn out when B1 was run?
Answer: 2
